Consider one molecule from patent US20260210971A1 (Pfizer, published 2026).

Assay [1] concerns the target T1, recombinant soluble human TL1A (human, UniProt O95150 71-251).
T1 construct: Homotrimer, expressed in HEK293 and purified over HitrapNTA; no tag is described; Used biotinylated in the HTRF assay and in flow cytometry; also called rsTL1A; hTL1A
T1 sequence: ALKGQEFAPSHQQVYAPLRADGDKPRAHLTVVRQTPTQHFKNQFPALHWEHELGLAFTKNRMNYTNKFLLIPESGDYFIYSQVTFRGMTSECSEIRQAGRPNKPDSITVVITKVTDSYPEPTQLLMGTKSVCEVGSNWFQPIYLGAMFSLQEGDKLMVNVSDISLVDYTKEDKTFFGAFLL
As to the kind of experiment: plate ELISA, TL1A coated, antibody titrated; plate of TNFSF6; plate of TNFSF6. In general terms: An ELISA detects its analyte on a solid surface through an enzyme-linked reagent.
Procedure: (§1) The first 6 rows of each plate were coated with the test article cytokine, and the last two rows were coated with TL1A as a positive control. Rows 1 and 2 were duplicate rows where the test article cytokine was tested for binding to increasing concentrations of its corresponding anti-cytokine positive control antibody. […] The experiment for each cytokine was repeated three times.
(§2) Plates were incubated overnight at 4° C. After washing the plates three times (3×) with 300 μL PBST using a plate washer (model ELx405; BioTek), plates were blocked by incubating for 1 hour at room temperature with 300 μL of blocking buffer (PBST+0.5% BSA) in each well. […] Plates were then washed 5 times with PBST using the plate washer.

Assay [2] has as its target T1, recombinant soluble human TL1A. Description: plate ELISA, TL1A coated at 1 µg/mL, detection with anti-human IgG HRP.
Procedure: as §1, §2
Assay [3] has the same target. As to the kind of experiment: flow cytometry, inhibition of the binding of 10 µg/mL biotinylated TL1A to DR3-transfected HEK293 cells. On the technique in general: In flow cytometry, cells or beads pass a laser one at a time.

B1: 1D1 1.31 (antibody, human IgG1, kappa, V domains shown)
VH: QVQLVQSGAEVKKPGASVKVSCKASGYDFTYYGISWVRQAPGQGLEWMGWISTYNGNTHYARMLQGRVTMTTDTSTRTAYMELRSLRSDDTAVYYCARENYYGSGAYRGGMDVWGQGTTVTVSS
VL: EIVLTQSPATLSLSPGERATLSCRASQSVSSYLAWYQQKPGQAPRLLIYDASNRATGIPARFSGSGSGTDFTLTISSLEPEDFAVYYCQQRSNWPWTFGQGTKVEIKR
notes: Full length human IgG1 with effector function-null mutations in the Fc, produced in CHO cells; Used biotinylated for staining of monocytes
For the molecule B1, in assay [1], the EC50 (usually the concentration that produces a half-maximal response) came out at 0.0085 ng/mL. In addition, the EC50 (read off the curve) (as a rule, the concentration needed to bring the measured effect to its halfway point) in assay [2] was approximately 8 ng/mL. Moreover, the IC50 (in general, the concentration at which inhibition is half-maximal) in assay [3] amounted to 18700 ng/mL.
